According to article PMC2768378:

Tests used:
[1] = molecular target: single chain H2A.Z-H2B (single stranded H2A.Z-H2B protein) (budding yeast); test: CPMG relaxation dispersion NMR
[2] = molecular target: single chain H2A.Z-H2B (single stranded H2A.Z-H2B protein) (budding yeast); test: ITC

- Kd [1]: 220 nM
- koff [1]: 22 s⁻¹
- Kd [2]: 100 nM
B1: Chz.core (residues 71–132 of Chz1) (domain or fragment)
chain: DMDDAKLDALMGNEGEEEEDDLAEIDTSNIITSGRRTRGKVIDYKKTAEELDKKEPSTGSKD
